Consider 19 variants from the RNAGym collection of RNA variant scans (doi:10.1073/pnas.2313332121).

This sample holds only a part of the variants without activity.

B1: TPR 5TU (parent)
chain: GGAUCUUCUCGAUCUAACAAAAAAGACAAAUCUGCCACAAAGCUUGAGAGCAUCUUCGGAUGCAGAGGCGGCAGCCUUCGGUGGCGCGAUAGCGCCAACGUUCUCAACUAUGACACGCAAAACGCGUGCUCCGUUGAAUGGAGUUUAUCAUG

The data set covers variants of B1. Briefly: polymerase ribozyme fitness, log enrichment relative to wild type (log ratio); higher = more active; in vitro selection for triplet polymerase activity. In a few lines:
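A heterodimeric triplet polymerase ribozyme had each of its subunits mutagenized by PCR into a library, which was transcribed. One round of in vitro selection, done in triplicate, annealed each library with a biotinylated primer, its partner subunit and triplets, then incubated it frozen at −7 °C before gel excision of extended constructs, streptavidin-bead capture and RT-PCR. Fitness is the logarithm of genotype enrichment relative to wild-type enrichment, based on Illumina sequencing of inputs and outputs and inverse-variance-weighted replicate averages. A base-2 logarithm is used, and genotypes were kept only with ≥10 input reads and ≥1 read per output.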
Consider GGAUCUUCUCGAUCUAACAAAAAAGACAAAACUGCCACAAGGCUUGAGAGCAUCUUCGGAUGCAGAGGCGGCAGCUUUCGGUGGCGCGAUAGAGCCAACGUUCUCAACUAUGACACGCAAAACGCGUGCUCCGUUAAAUAGAGUUUAUCAUG [U31A A41G C76U C93A G136A G140A], for which the “polymerase ribozyme fitness (log ratio)” value was -3.72. The value for GGAUCUUCUCGAUCUAACAAAAAAGACAAUUCUGCCACAAAGCUUGAGAGCAUCUUCGGAAGCAGAGGCCGCAGCCUUCGGUGGCGCGAUAGCGCAAACGUUCUCAACUAGGACACGCAAAACGCGUGCUCCGUUGAAUAGAGUUUAUCAUG [A30U U61A G70C C96A U111G G140A] was no more than -4.2; that for GGAUCUUCUCGAUCUAACAAAAAAGACAAUUCUGCCACAAAGCUUGAGAGCAUCUUCGGAGGCAGAGACGGCAGCCUUCGGUGGCGCGAUAGUGCCAACGUUGUCAACUAUGACACGCAAAACGCGUGCUCCGUUGAAUGGAGUUUCUCAUG [A30U U61G G68A C93U C103G A147C] was no more than -4.2; that for GGAUCUUCUCGAUCUAACAAAAAAGACAAUUCUGCCACAAAGCUUGAGAGCAUCGUAGGAUGCAGAGGCGGCAGCCUUCGGUGGCGCGAUAGUGCCAACGUUCUCAACUAUGACACGCAAAACGCGUGCUCCGUUGAAUGGAGUUUAUCAUG [A30U U55G C57A C93U] was -4.13. With GGAUCUUCUCGAUCUAACAAAAAAGACAAUUCUGCCACAAAGCUUGAGAGCAUCUGCGGAUGCAGAGGCGGCAGCCUUCGGUGACGCGAUAGCGCUAACGUUCUCAACUAUGCCACGCAAAACGUGUGCUCCGAUGAAUGGUGUUUAUCAUG [A30U U56G G84A C96U A113C C125U U134A A142U], the “polymerase ribozyme fitness (log ratio)” value was no more than -4.2. For GGAUCUUCUCGAUCUAACAAAAAAGACAAAACUGCCACAAUGCUUGAGAGCAUCUUCGGAUGCAGAGGCGGCAGCCUUCGGUCGCGCGAUAGCGCCAACGUUCUCAACUAGGACACGCAAAACGCGUGCUCCGUUCAAUGGAGUUUAUCAUG [U31A A41U G83C U111G G136C], the “polymerase ribozyme fitness (log ratio)” value was no more than -4.2. The value for GGAUCUUCUCGAUCUAACAAAAAAGACAAUUCUGCCACAAAGCUUGAGAGCAUCUUCGGAUGCAGAGGCGGCAGCCUUCGGAGGAGCGAUAGCGCCAACGUUCACAACUAUGACACGCAAAACGCGUGCUCCGUUGAAUGGAGUUUAUCAUG [A30U U82A C85A U104A] was no more than -4.2; that for GGAUCUUCUCGAUCUAACAAAAAAGACAAAACUGCCACGUCGCUUGAAAGCAUCUUCGGAUGCAGAGGCGGCAGCCUUCGGUGGCGCGAUAGCGUCAACGUUCUCAACUAUGACACGCAAAACGCGUGCUGCGUUGAAUGGAGUUUAACAUG [U31A A39G A40U A41C G48A C95U C131G U148A] was no more than -4.2. With GGAUCUUCUCGAUCUAACAAAAAAGACAAUUCUGCCACAAAGCUUGAGAGCAUCAUCGGAUGCAGAGGCGGCAACCUUUGGUGGCGAGAUAGCGCCAACGUUCUCAACUAUGACAAGCAAAACGCGUGCUCCGUUGAAUGGAGUUUAUCAUG [A30U U55A G74A C79U C87A C116A], the “polymerase ribozyme fitness (log ratio)” value was no more than -4.2.

With GGAUCUUCUCGAUCUAACAAAAAAGACAAUUCUGCCACAAAGCUUGAGAGCAUCUUCGGAUGCAGAGGCGGCAGCCAUCGGUGUCGCGAUCGCCCCAAGGUUCUCAACUAUGACACGCAAAACGCGUGCUCCGUUGAAUGCAGUUUAUCAUG [A30U U77A G84U A91C G94C C99G G141C], the “polymerase ribozyme fitness (log ratio)” value is no more than -4.2. With GGAUCUUCUCGAUCUAACAAAAAAGACAAUUCUGCCACAAAGCUUGAGAGCAUCUACGGAUACAGAGGCGGCAGCCUUCGGUGGCGCGAUAGCGCCAACGUUCUCAACUAUGACACGCAAAACGCAUGCUCCGUUGAAUGGAGUUUAUCAUG [A30U U56A G62A G126A], the “polymerase ribozyme fitness (log ratio)” value is -3.5. The value for GGAUCUUCUCGAUCUAACAAAAAAGACAAUUCUGCCACAAAGCUGGAGAGCAUCUUCGGAUGCAGAGGCGGCAGCCUUCGGUGGCGCGAUAGUGCCAACGUUGUCAACUAUGACACGGAAAACGCGUGCUCCGUUGAAUGGAGUUUAUCAUG [A30U U45G C93U C103G C118G] was no more than -4.2. As to GGAUCUUCUCGAUCUAACAAAAAAGACAAAACUGCCACGAAGCUUGAGAGCAUCUUCGGAUGCAGACGCGGGAGCCUUCGGUGGCGCGAUAGCGCUAACGUUCUCAUCUAUGGCCCGCAAAACGCGUGCUCCGUUGAAUGGAGUUUAACAUG [U31A A39G G67C C72G C96U A107U A113G A115C U148A], the “polymerase ribozyme fitness (log ratio)” value was no more than -4.2. The value for GGAUCUUCUCGAUCUAACAAAAAAGACAAUUCUGCCACAAAGCUUGAGAGCAUCAUCGGAUGCAGAGGCGGCAGCCUUCGGUGGCGCGAUAGCGCCAACGUUCUCAACUAUGACACGCAAAACGCGUGCUCCGUUGAAUGGAGUUUAUCAUG [A30U U55A] was -2.96; that for GGAUCUUCUCGAUCUAACAAAAAAGACAAUUCUGCCACAAAGCUUGAGAGCAUCUUCGGAUGCAGAGGCGGCAGCCUUCGGUGGCGCGAUAGCGCCAACGUUCUCAACUAUGACACGCAAAACGCGUGCUCCGUUGAAUGGAGAUUAUCAUG [A30U U144A] was -3.67. The value for GGAUCUUCUCGAUCUAACAAAAAAGACAAAACUGCCACAUAGCUUGAGAGCAUCUUCGGAUGCAGAGGCGGCAGCCUUCGGUGGGGCGAUAGCGCCAACGUUCUCGACUAUGACACGCAAAACGCGUGCUCCGUUGAAUAGAGUUUAUAAUG [U31A A40U C85G A106G G140A C149A] was no more than -4.2; that for GGAUCUUCUCGAUCUAACAAAAAAGACAAAACUGCCACAAAGCUUGCGAGCAUCUACGGAUGCAGAGGCGGCAGCCUUCGGUGGCGUGAUAGCGCCAACGUUCUCAACUAUGACACGCAAAACGCGUGCUCCGUUGAAUGGAGUUUAUCAUG [U31A A47C U56A C87U] was -0.397; that for GGAUCUUCUCGAUCUAACAAAAAAGACAAUUCUGCCACAAAGCUUGAGAGCAUCAUCGAAUGCAGAGGCAGCAGCCUUCGGUGGCGCGAUAGCGCGGACGUUCUCAACUAUGACACGCAAAACGCGUGCUCCGUUGAAUGGAGUUUAUCAUG [A30U U55A G59A G70A C96G A97G] was no more than -4.2.

On to GGAUCUUCUCGAUCUAACAAAAAAGACAAAACUGCCACUAAGCUUGAGAGCAUCUUCGGAUGCAGAGGCGGCAGCCUUCGGUGGCGCGAUAGGGUCAAUGUUCUCAGCUAUGUCACGCAAAACGCGUGCUCUGUCGAGUGGAGUUUAUCAUG [U31A A39U C93G C95U C99U A107G A113U C132U U135C A138G], for which the “polymerase ribozyme fitness (log ratio)” value was no more than -4.2.
